Test results published in article PMC7497679, “Structure-based design, synthesis, and evaluation of the biological activity of novel phosphoroorganic small molecule IAP antagonists” (Investigational New Drugs, 2020).

Biological target: X-linked inhibitor of apoptosis protein (XIAP) BIR3 domain (human)
Assay: fluorescence polarisation; competition: XIAP BIR3 (50 nM) added to the competitor (50 µM to 0.640 nM or to 0.0537 nM), 15 min at r.t., then probe 4 (2 nM), read 30 min later; phosphate buffer pH 7.5 with γ-globulin 100 µg/mL and NaN3 0.02%, final DMSO 1.4%

EC50: 340 nM
Binder: H-AVPW-OH [tetrapeptide H2N-Ala-Val-Pro-Trp-OH (3)]
